Assay results: the supplement of paper PMC7877785
± gives the uncertainty stated by the source.

Assay: self-splicing fitness, log relative to wild type (ln ratio); higher = more splicing; Tetrahymena group I intron in knt gene, E. coli kanamycin selection, DiMSum; sequences stand for … in CUCUCU…GGAGGGAAAAGUUAUCAGGCAUGCACCUGGUAGCUAGUCUUUAAACCAAUAGAUUGCAUCGGUUUAAAAGGCAAGACCGUCAAAUUGCGGGAAAGGGGUCAACAGCCGUUCAGUACCAAGUCUCAGGGGAAACUUUGAGAUGGCCUUGCAAAGGGUAUGGUAAUAAGCUGACGGACAUGGUCCUAACCACGCAGCCAAGUCCUAAGUCAACAGAUCUUCUGUUGAUAUGGAUGCAGUUCACAGACUAAAUGUCGGUCGGGGAAGAUGUAUUCUUCUCAUAAGAUAUAGUCGGACCUCUCCUUAAUGGGAGCUAGCGGAUGAAGUGAUGCAACACUGGAGCCGCUGGGAACUAAUUUGUAUGCGAAAGUAUAUUGAUUAGUUUUGGAGUACUCGUGGUCG
Method in brief: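 Colonies from six replicate transformations of E. coli BL21(DE3) were pooled and amplicon-sequenced on an Illumina HiSeq 2500. The library placed an intron with all eight P1ex-region nucleotides randomised inside the knt kanamycin-resistance gene on pET-22b(+), and cells grew overnight at 37°C or 30°C on LB agar with or without 25 μg/mL kanamycin (plus 100 μg/mL carbenicillin, 50 μM IPTG, 0.2% rhamnose). Fitness is the DiMSum error-weighted combination of wild-type-normalised replicate fold changes, kanamycin versus none.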

Sequence | self-splicing fitness (ln) (30 °C) | self-splicing fitness (ln) (37 °C)
CGUCAGCAAUAUUACGACUG | -0.935 ± 0.11 | 0.699 ± 0.13
CGUCAGCAAUAUUACGAGAC | -2.95 ± 0.38 | -1.9 ± 0.32
CGUCAGCAAUAUUACGAUAG | -0.505 ± 0.054 | -0.11 ± 0.074
CGUCAGCAAUAUUACGAUCG | -1.74 ± 0.093 | -1.61 ± 0.11
CGUCAGCAAUAUUACGAUGU | -1.73 ± 0.11 | -1.53 ± 0.098
CGUCAGCAAUAUUACGCACC | -1.51 ± 0.1 | -0.192 ± 0.13
CGUCAGCAAUAUUACGCAUC | -2.47 ± 0.4 | -2.89 ± 0.4
CGUCAGCAAUAUUACGCGCC | -1.58 ± 0.16 | -0.529 ± 0.29
CGUCAGCAAUAUUACGCUCC | -1.3 ± 0.15 | -0.786 ± 0.22
CGUCAGCAAUAUUACGGAGU | -3.45 ± 0.17 | -2.55 ± 0.18
CGUCAGCAAUAUUACGGCAC | -1.8 ± 0.12 | -0.799 ± 0.14
CGUCAGCAAUAUUACGGCCA | -0.937 ± 0.083 | 0.106 ± 0.097
CGUCAGCAAUAUUACGGCCU | -0.913 ± 0.17 | -1.79 ± 0.29
CGUCAGCAAUAUUACGGCGU | -4.74 ± 0.34 | -0.685 ± 0.19
CGUCAGCAAUAUUACGGCUA | -0.938 ± 0.11 | -0.751 ± 0.11
CGUCAGCAAUAUUACGGGAU | -4.7 ± 0.39 | -2.66 ± 0.2
CGUCAGCAAUAUUACGGGCU | -1.31 ± 0.078 | -0.668 ± 0.082
CGUCAGCAAUAUUACGGGGU | -3.29 ± 0.11 | -2.33 ± 0.14
CGUCAGCAAUAUUACGGGUC | -4.23 ± 0.39 | -2.73 ± 0.23
CGUCAGCAAUAUUACGGUGG | -1.26 ± 0.071 | -0.629 ± 0.096
CGUCAGCAAUAUUACGUAGG | -0.704 ± 0.055 | 0.23 ± 0.086
CGUCAGCAAUAUUACGUCAA | -2.64 ± 0.11 | -1.61 ± 0.1

Sequence | self-splicing fitness (ln) (30 °C) | self-splicing fitness (ln) (37 °C)
CGUCAGCAAUAUUACGUCAG | -0.465 ± 0.069 | 0.175 ± 0.083
CGUCAGCAAUAUUACGUCGG | -0.413 ± 0.042 | 0.115 ± 0.06
CGUCAGCAAUAUUACGUCGU | -3 ± 0.09 | -1.99 ± 0.11
CGUCAGCAAUAUUACGUGCG | -4.56 ± 0.31 | -2.21 ± 0.19
CGUCAGCAAUAUUACGUUCC | -2.43 ± 0.16 | -1.18 ± 0.23
CGUCAGCAAUAUUACGUUUU | -3.25 ± 0.098 | -1.55 ± 0.094
CGUGAGCAAUAUUACGAUAU | -2.77 ± 0.14 | -2.71 ± 0.23
CGUGAGCAAUAUUACGAUCG | -3.02 ± 0.27 | 0.475 ± 0.25
CGUGAGCAAUAUUACGAUUU | – | -2.24 ± 0.29
CGUGAGCAAUAUUACGCAAU | -2.52 ± 0.14 | -2.75 ± 0.25
CGUGAGCAAUAUUACGCAUG | -0.06 ± 0.18 | -1.13 ± 0.27
CGUGAGCAAUAUUACGCUAU | -2.39 ± 0.17 | -2.49 ± 0.23
CGUGAGCAAUAUUACGCUCU | -1.76 ± 0.36 | –
CGUGAGCAAUAUUACGCUUA | – | -2.18 ± 0.35
CGUGAGCAAUAUUACGGAAU | – | -2.84 ± 0.38
CGUGAGCAAUAUUACGGACA | -1.29 ± 0.16 | -0.944 ± 0.19
CGUGAGCAAUAUUACGGAGA | -3.88 ± 0.33 | -1.57 ± 0.25
CGUGAGCAAUAUUACGGCCA | -2.35 ± 0.49 | –
CGUGAGCAAUAUUACGGCUG | -0.246 ± 0.073 | 0.0364 ± 0.094
CGUGAGCAAUAUUACGGCUU | -3.31 ± 0.18 | -3.81 ± 0.33
CGUGAGCAAUAUUACGGGAC | – | -1.88 ± 0.41
CGUGAGCAAUAUUACGGGCC | -1.9 ± 0.32 | –

Sequence | self-splicing fitness (ln) (30 °C) | self-splicing fitness (ln) (37 °C)
CGUGAGCAAUAUUACGGUAA | – | -2.41 ± 0.25
CGUGAGCAAUAUUACGGUCU | -2.56 ± 0.17 | -2.16 ± 0.42
CGUGAGCAAUAUUACGUAAA | – | -2.03 ± 0.33
CGUGAGCAAUAUUACGUACG | – | -0.531 ± 0.23
CGUGAGCAAUAUUACGUACU | -1.7 ± 0.12 | -0.396 ± 0.14
CGUGAGCAAUAUUACGUGAG | -0.77 ± 0.072 | -1.61 ± 0.097
CGUGAGCAAUAUUACGUGGC | -3.73 ± 0.37 | -3.16 ± 0.4
CGUGAGCAAUAUUACGUGGU | -3.02 ± 0.17 | -2.42 ± 0.22
CGUGAGCAAUAUUACGUGUU | -3.22 ± 0.3 | -2.86 ± 0.32
CGUGAGCAAUAUUACGUUAG | -2.02 ± 0.081 | -1 ± 0.094
CGUUAGCAAUAUUACGAAUC | -2.95 ± 0.28 | -2.42 ± 0.3
CGUUAGCAAUAUUACGACGG | 0.168 ± 0.13 | -0.377 ± 0.12
CGUUAGCAAUAUUACGACUC | -0.808 ± 0.25 | 0.024 ± 0.23
CGUUAGCAAUAUUACGAGAA | -1.93 ± 0.49 | -1.45 ± 0.46
CGUUAGCAAUAUUACGAUAA | -2.9 ± 0.26 | -1.52 ± 0.22
CGUUAGCAAUAUUACGCAGA | -3.21 ± 0.41 | -2.31 ± 0.23
CGUUAGCAAUAUUACGCAUU | -4.27 ± 0.25 | -1.29 ± 0.12
CGUUAGCAAUAUUACGCCGG | -0.8 ± 0.11 | -0.767 ± 0.11
CGUUAGCAAUAUUACGCGUA | – | -0.996 ± 0.25
CGUUAGCAAUAUUACGCGUU | -4.08 ± 0.13 | -2.39 ± 0.12
